The values that follow come from US20240043505A1 (UNIVERSITY OF PITTSBURGH OF THE COMMONWEALTH SYSTEM OF …, published 2024).

The labels stand for the following.
B1: Nb58 (VHH)
VHH: QVQLVESGGGLVQAGGSLRLSCAASGRDFSSTVMGWFRQAPGKERELVAWMTVTYDITYYADSVKGRFTISKDNAKNTVYLQANSLKPDDTAVYYCASGALRVGSFSPDYWGQGTQVTVSS
B2: Nb46 (VHH)
VHH: QVQLVESGGGLVQAGGSLRLSCAVSGSTLGINAIGWYRQPPGKQRELVASISSLGTTLYAESVKGRFAISRDNAKNTGYLQMNSLKPDDTAVYYCNMRTPYMRDYWGQGTQVTVSS
B3: Nb55 (VHH)
VHH: DVQLVESGGGLVQAGGSLRLSCAASGRTFGSTMAWFRQAPGKERDFVAAITWSADRISYADSVKGRFTISRDNDKNIVHLQMNSLKPEDTAVYVCAARASSNTYDDPRSFAFWGQGTQVTVSS
B4: Nb6 (VHH)
VHH: HVQLVESGGGLVQAGGSLRLSCAASGRTFSTHATGWFRQAPGKEREFLATSVWLDDISRDSTYYAESVKGRFSISRDNAKDTVYLQMNSLKPEDTAVYYCAVKQRVGPGIMSAPTYDYWGQGTQVTVSS
B5: Nb68 (VHH)
VHH: QVQLVESGGGLVQAGGSLRLSCAASGGTLRSYNMGWFRQGPGKEREFVAAISWTGLGTYYGDSVKGRFTISRDVIKNTLYLQMDSLKPEDTAIYYCAADSSTSRLHSAGSDYRYWGQGTQVTVSS
B6: Nb43 (VHH)
VHH: EVQLVESGGGLVQAGGSLRLTCAASGRTFSSSTMDMGWFRQAPGKEREFVAVDAWNDGRTYYADSVKGRFTISRDNAKNTLYLQMNSLKPEDTAIYYCNLRQGCSYNGCDEYWGQGTQVTVSS
B7: Nb76 (VHH)
VHH: DVQLVESGGGLVQAGGSLRLSCAVSGRTFSISTMGWFRQAPGKERLFVAGITWHDGSTNYADSVKGRFTISRDNAKNTVYLQMNSLKPEDTALYYCAARKSINYVQEYDYWGRGTQVTVSS
B8: Nb10 (VHH)
VHH: DVQLVESGGGLVQAGGSLKLSCTASESTFNFNHIDWYRQAPGKQRESVAVITNTDVTNYADSVKGRFTISRDNAKNTVYLQMNSLKPEDTAVYLCNAWRFGPTGVKVDYWGQGTQVTVSS
B9: Nb37 (VHH)
VHH: QVQLVESGGGLVQTGGSLRLSCAASGRTFSNYVMGWFRQAPGKEREFVSSIEWNSENTFYANSVKGRFTISRDNAKNTVYLQMNSLKAEDTAVYYCAADRGSSYYYTRASEYTYWGQGTQVTVSS
B10: Nb42 (VHH)
VHH: HVQLVESGGGLVQAGESLRLSCVASGSIFSINAMGWFRQAPGKQRELVASISNIGTTIYAESVKGRFTISRDNAKNTADLQMNSLKPEDTAIYYCNLRQGCSYNGCDEYWGQGTQVTVSS
B11: Nb74 (VHH)
VHH: HVQLVESGGGLVQAGGSLRLSCAASGRTFSSHAMAWFRQAPGKEREFVAGISWSGPYYVDSVKGRFTISTDNAKNTVYLQMNSLTPEDTAVYYCASSRGPNLYPHIGDVEYWGQGTQVTVSS
B12: Nb62 (VHH)
VHH: HVQLVESGGGLVQAGGSLRLTCAASGRTFSSSTMDMGWFRQAPGKEREFVAVDAWNDGRTYYADSVKGRFTISRDNAKNTLYLQMNSLKPGDTAVYYCHAVDVSVGGDYWGQGTQVTVSS
B13: Nb15 (VHH)
VHH: EVQLVESGGGLVAAGGSLRLSCVPSTNIFSANAMGWYRQAPGKQRELVASITSGGNTNYADSVKGRFTISRDNADTVILQMNSLKPEDTAVYYCKGTAYSTTYNSVRDYWGQGTQVTVSS
B14: Nb90 (VHH)
VHH: HVQLVESGGGLVQAGGSLRLSCAVSGRTVSSYVMGWFRQAPGKEREFVAGIGRTGMTITADSVKGRFTISRDNAKNLVYLQMNSLKSEDTAVYWCAAGVRDFAPRIDSYDYWGQGTQVTVSS
B15: Nb12 (VHH)
VHH: HVQLVESGGGLVQAGGSLRLTCAASGGTFSTSTMDMGWFRQAPGKEREFVAVDSWNDGRAYYADSVKGRFTISRDSAKTTLYLQMNSLKPEDTAVYYCAARTERGVYDYWGRGTQVTVSS
B16: Nb39 (VHH)
VHH: QVQLVESGGGLVQAGGSLRLSCAASGRTFRFSAIDWYRQAPGQQREFVASISTSGRISYGHFVKGRFTISRDNAKNTMYLQMNSLKPEDTAVYYCHLAQPDVFGGGDYWGQGTQVTVSS
B17: Nb41 (VHH)
VHH: DVQLVESGGGLVQAGGSLRLSCAASGFTFSNYVMYWGRQAPGKGREWVSGIDSDGSDTAYASSVKGRFTISRDNAKKTLYLQMNDLKPEDTALYYCVKSKDRYGSPWTRSEFEDYWGQGTQVTVSS
B18: Nb2 (VHH)
VHH: QVQLVESGGGLVQAGGSLRLSCAASGRTFSIYNMGWFRQAPGKEREFVIHMNWSNGNTATAASVKDRFTISRDNAKNTVYLQMSSLKPEDTAVYYCHATTNDYDYWGQGTQVTVSS
B19: Nb24 (VHH)
VHH: QVQLVESGGGLVQAGGSLRLTCAASGGTFSTSTMDMGWFRQAPGKEREFVALDSWNGGRTYYADSVKGRFTISRDNAKNTLYLQMNSLKPEDTAVYYCAADTYSNYEKDDSWGYWGQGTQVTVSS
B20: Nb26 (VHH)
VHH: HVQLVESGGGLVQAGGSLRLTCAASGRTFSISTMDMGWFRQAPGKEREFVAADAWNDGRTYYADSVKGRFTISRDNAKNTLYLQMNSLKPEDTAVYYCTADTYSNYKKDDSWGYWGQGTQVTVSS
B21: Nb29 (VHH)
VHH: HVQLVESGGGLVQAGGSLRLTCAASGGTFSTSTMDMGWFRQAPGKEREFVAVDSWNDGRAYYADSVKGRFTISRDNAKNTLYLQMNSLKPEDTAVYYCAAETYSNYEKAYSWGYWGQGTQVTVSS
B22: Nb32 (VHH)
VHH: DVQLVESGGGLVQAGGSLRLSCAASGRTFSSDTMDMGWFRQAPGKEREFVALHSWNGGKTYYADSVKGRFTISRDNAKNTLYLQMNNLKPEDTAVYYCAAETYTLYEKDSSWGYWGQGTQVTVSS
B23: Nb3 (VHH)
VHH: HVQLVESGGGLVQAGGSLRLSCVASGSGFEPNAMGWYRQAPGKQRELVAGITSGGNTNYADSVKGRFTISRDNVKNTVYLQMNSLKPEDTAVYYCNAVAPRINPRGSPTNYWGQGTQVTVSS
B24: Nb4 (VHH)
VHH: QVQLVESGGGLVQAGGSLRLSCVASGSGFEPNAMGWYRQAPGKQRELVAGITSGGNANYADSVKGRFTISRDNVKNTVYLQMNSLKPEDTAVYYCNAVGPRFNPRGSPTNYWGQGTQVTVSS
B25: Nb92 (VHH)
VHH: HVQLVESGGGLVQAGGSLRLSCAASGRTFSAYGMGWFRQAPGKEREFVAGIARSGSEYYGDSVKGRFTISRDNAKNTVYLQMASLKAEDTGVYYCAADPTILYHALSQRTQNYRYWGPGTQVTVSS
B26: Nb63 (VHH)
VHH: QVQLVESGGGLVQAGGSLRLSCVASGSGFEPNAMGWYRQAPGKQRELVAGITSGGNANYADSVKGRFTISRDNVKNTVYLQMNSLKPEDTAVYYCQGPACSGSGCRNYWGQGTQVTVSS
B27: Nb60 (VHH)
VHH: HVQLVESGGGLVQAGDSLRLSCAASERTNINYAMGWFRQAPGKERDFVAAIGWNGSIIKYAESVKGRFTISRDDAKNTVSLQMNSLKPEDTAVYYCAARIGSIANLQPREYEFAYWGQGTQVTVSS
B28: Nb80 (VHH)
VHH: HVQLVESGGGLVQPGGSLRLSCAASGNFFLINVMSWWRQAPGNEHELHELVATITSDGRTNYGDAVQGRFTISRDNAKNTLYLQMNSLKPEDTAVYYCYAQGQGNREYWGQGTQVTVSS
B29: Nb18 (VHH)
VHH: DVQLVESGGGLVQAGGSLRLSCAASGRTFSSYNVGWFRQAPGKEREFVAFIRWSGTSTYYADSVKGRFTISRDNAKNTVYLQMNSLKPEDTAVYYCAATSRTMIHTSQAMPINWDYWGQGTQVTVSS
B30: Nb84 (VHH)
VHH: DVQLVESGGGLVQAGGSLRLSCAASGRTFSSYSMGWFRQAPGKEREFVAFIRWSGTSTYYADSVKGRFTISRDNAKNTVYLQMNSLKPDDTAVYYCAASSRTMNTISQTMRINWDYWGQGTQVTVSS
B31: Nb100 (VHH)
VHH: EVQLVESGGGLVQAGGSLRLSCAASGLTFSSYNMGWFRQAPGKEREFVAFIRWSGTSTYYADSVKGRFTISRDTAKNTVYLQMNSLKLEDTAVYYCAATSRTMIHTSQTMRINWDYWGQGTQVTVSS
B32: Nb91 (VHH)
VHH: HVQLVESGGGLVQPGGSLRLSCAASGLTLNDYAIGWFRQAPGKEREGVSCISSSDGTTYYADSVKGRFTISRDNAKNTVYLQMNSLKPEDTAVYYCATDIAPFYCSWPLRTRLVEYWGQGTQVTVSS

The target in the assay is SARS-CoV-2 spike receptor-binding domain (RBD) (SARS-CoV-2, UniProt P0DTC2 319-541). The assay can be described thus: indirect ELISA, RBD coated on plate, 4PL fit.
B1 registered an ELISA affinity of 2.68 nM.

Consider B2, for which the ELISA affinity turned out to be 25.9 nM.

For the molecule B3, the ELISA affinity came out at 2.24 nM.

B4 displayed an ELISA affinity of 0.57 nM.

Consider B5, for which the ELISA affinity stood at 6.11 nM.

In turn, B6 yielded an ELISA affinity of 664 nM.

In the case of B7, the ELISA affinity came out at 0.17 nM.

In turn, B8 returned an ELISA affinity of 0.24 nM.

B9 registered an ELISA affinity of 0.38 nM.

On to B10, for which the ELISA affinity is 0.66 nM.

B11 had an ELISA affinity of 67.1 nM.

B12 registered an ELISA affinity of 85.7 nM.

Molecule B13 returned an ELISA affinity of 0.47 nM.

B14 displayed an ELISA affinity of 4.03 nM.

In turn, B15 returned an ELISA affinity of 539 nM.

For B16, the ELISA affinity is 1.49 nM.

B17: the ELISA affinity was found to be 0.2 nM.

Regarding B18, the ELISA affinity was 4.82 nM.

With B19, the ELISA affinity stood at 0.77 nM.

In turn, B20 came in with an ELISA affinity of 0.92 nM.

Molecule B21 registered an ELISA affinity of 1.25 nM.

On to B22, for which the ELISA affinity was found to be 2.17 nM.

B23 gave an ELISA affinity of 0.48 nM.

The molecule B24 showed an ELISA affinity of 0.67 nM.

On to B25, for which the ELISA affinity was 4.92 nM.

For B26, the ELISA affinity was found to be 0.84 nM.

B27 registered an ELISA affinity of 138 nM.

For the molecule B28, the ELISA affinity stood at 5.09 nM.

B29 returned an ELISA affinity of 0.57 nM.

B30 yielded an ELISA affinity of 0.53 nM.

Molecule B31 had an ELISA affinity of 1.04 nM.

On to B32, for which the ELISA affinity stood at 1.28 nM.
